Molecular target: IGF-II (insulin-like growth factor-II)
Test: SPR; BIAcore; who was immobilised, buffer, pH and temperature not stated (abstract P25)

Substance	Kd	koff	kon
IGF2R domain 11 (domain or fragment)	153 nM	0.0138 s⁻¹	90000 M⁻¹ s⁻¹
IGF2R domains 10-12 (domain or fragment)	346 nM	0.0086 s⁻¹	24800 M⁻¹ s⁻¹
IGF2R domains 10-13 (domain or fragment)	49.3 nM	0.00808 s⁻¹	164000 M⁻¹ s⁻¹
IGF2R domains 11-12 (domain or fragment)	134 nM	0.0082 s⁻¹	61300 M⁻¹ s⁻¹
IGF2R domains 11-13 (domain or fragment)	42.6 nM	0.00426 s⁻¹	100000 M⁻¹ s⁻¹
sIGF2R (domains 1-15), soluble insulin-like growth factor 2 receptor (from UniProt P11717 41-2304)	9.55 nM	0.0113 s⁻¹	1.18e+06 M⁻¹ s⁻¹
